In this test the target is T1, cleaved H3 tail peptide (H3 22-37), methylated at K27 (not fully specified; also: K27 methylated, degree not given here, biotinylated, site not given here).
T1 construct: Mimics the H3 tail after cleavage between A21 and T22; also called cleaved peptide (amino acid residues 22-37)
T1 peptide: TKAARK(Me)SAPATGGVKK
Put plainly: fluorescence anisotropy. In general terms: Fluorescence polarisation rises when a labelled molecule tumbles more slowly, as on binding a larger partner.

Where no end group is shown, it is not given here.

B1: chromodomain of mouse CBX7 (other, UniProt Q8VDS3 1-70, looked up)
chain: MELSAIGEQVFAVESIRKKRVRKGKVEYLVKWKGWPPKYSTWEPEEHILDPRLVMAYEEKEERDRASGYR
notes: domain: chromodomain; also called Cbx7-CD protein; chromodomain of Pc (mouse CBX7)
As to B1, the “fold decrease of binding against the non-cleaved peptide (residues 18-37)” value was 3 fold.

The record behind these values is patent US20110312897A1 (ROCKEFELLER UNIVERSITY, published 2011).
